Results published in paper PMC12052392 (2025).
Substitutions are numbered along the chain they refer to. Several values for one entry are separate records, joined by “and”; a condition that tells them apart may be missing. Equal values may be shown once.

B1: nanobody H145 (VHH)
VHH: QVQLVESGGGLVQTGGSLRLSCEASGSAFSSYAVNWYRQAPGKQREPVAAIGSFNTVYSDSVKGRFTISRDNAKNTVYLQMNSLKPEDTAVYICNARRGATNTWGQGTQVTVSS
modifications: biotin (Biotinylation Kit), only in the BLI with truncated S2 proteins
B2: nanobody H17 (VHH)
VHH: B1 VHH with Q1E, L4V, E23A, I93V, T103Y, S114P
modifications: biotin (Biotinylation Kit), only in the BLI with truncated S2 proteins

How the values were obtained:
[1] = target: T1, SARS-CoV-2 S2 (T1076-Q1208) antigen, trimeric S2 fusion-core-based antigen (SARS-CoV-2, UniProt P0DTC2 1076-1208); test: BLI
T1 chain: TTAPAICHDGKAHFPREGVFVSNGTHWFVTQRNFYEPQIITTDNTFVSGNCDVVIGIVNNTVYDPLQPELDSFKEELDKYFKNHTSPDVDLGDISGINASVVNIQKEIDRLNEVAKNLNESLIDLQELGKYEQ

S2 (G1124-H1159) = test: ELISA
S2 (D1139-D1153) = test: ELISA
[2] = target: T2, GST-fused truncated S2 protein S2 (D1139-E1151) (SARS-CoV-2, UniProt P0DTC2 1139-1151); test: ELISA
T2 chain: DPLQPELDSFKEE

Row | Binder | koff [1] | EC50 (S2 (G1124-H1159)) | EC50 (S2 (D1139-D1153)) | EC50 [2]
1 | B1 | 0.000149 s⁻¹ and 0.000129 s⁻¹ and 0.000123 s⁻¹ | 0.53 nM | 1.01 nM | > 170 nM
2 | B2 | 0.000525 s⁻¹ and 0.00023 s⁻¹ | 4.71 nM | 4.83 nM | 
